Results: patent publication US20120107330A1 (published 2012)
Numbering of substitutions follows the chain as printed. Values belong to the binder of their own block, whether it stands above or below them.

Experiments:
[1] = target: T1, human TNFR1 on MRC-5 cells (human, UniProt P19438 30-455); assay: cell-based or functional assay
T1 sequence (looked up): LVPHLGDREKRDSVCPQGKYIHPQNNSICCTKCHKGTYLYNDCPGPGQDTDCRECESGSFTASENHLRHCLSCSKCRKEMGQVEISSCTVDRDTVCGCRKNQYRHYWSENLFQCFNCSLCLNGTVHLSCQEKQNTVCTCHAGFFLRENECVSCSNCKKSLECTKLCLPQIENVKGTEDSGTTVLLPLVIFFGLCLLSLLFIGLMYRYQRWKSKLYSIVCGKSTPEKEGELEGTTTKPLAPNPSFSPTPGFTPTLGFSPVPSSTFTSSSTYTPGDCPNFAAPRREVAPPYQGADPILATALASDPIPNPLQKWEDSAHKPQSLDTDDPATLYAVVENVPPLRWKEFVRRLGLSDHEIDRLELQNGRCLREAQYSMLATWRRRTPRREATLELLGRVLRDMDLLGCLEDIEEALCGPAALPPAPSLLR

[2] = target: T2, human TNFR1 (recombinant, R&D Systems cat no. 636-R1/CF, biotinylated) (human, UniProt P19438 30-211, limits assumed, biotinylated with EZ-Link NHS-LC-LC-biotin); assay: BIAcore T100, biotinylated human TNFR1 on chip
T2 construct: it is not tied to the BIAcore reagent; also called p55; hTNFR1
T2 sequence (looked up): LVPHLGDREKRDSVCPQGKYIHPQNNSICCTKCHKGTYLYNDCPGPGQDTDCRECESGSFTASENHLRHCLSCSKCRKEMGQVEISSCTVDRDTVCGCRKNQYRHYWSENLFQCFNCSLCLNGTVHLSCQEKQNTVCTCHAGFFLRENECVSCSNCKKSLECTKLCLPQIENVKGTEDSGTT
Description: Furthermore, the affinity and potency of the purified fusion molecules were determined using a BIAcore T100 and the MRC5 cell assay, respectively. The BIAcore T100 is a highly sensitive BIAcore version ideally suited for determination of high affinity binders (Papalia et al., Anal Biochem. 359, p 112 (2006)). Biotinylated, human TNFR1 was coated on the chip and each of the twelve AlbudAb fusions were passed over this surface at four different concentrations (2, 10, 50 and 250 nM). […] This improvement is observed regardless of the AlbudAb used for pairing and largest for the pairings with DOM7h-14-18. A second experiment used to establish if the different pairings affected the functional activity of the anti-TNFR1 dAb was the MRC5 cell assay (Table 8). A more marked difference between the pairings is observed in the MRC5 assay, in which the best potencies are observed in pairings with DOM7h-11-3 and DOM7h-11-12 while pairings with DOM7h-14-10 (DMS0117) lead to significant decreases in potency.

[3] = target: T2, human TNFR1 (recombinant, R&D Systems …); assay: BIAcore, human TNFR1
[4] = target: T1, human TNFR1 on MRC-5 cells; assay: cell-based or functional assay; remark: listed apart in the source

- MRC5 (ND50 in nM) [1]: 25.9 nM
B1: DMS0117 (bispecific antibody)
chain: EVQLLESGGGLVQPGGSLRLSCAASGFTFVKYSMGWVRQAPGKGLEWVSQISNTADRTYYAHSVKGRFTISRDNSKNTLYLQMNSLRAEDTAVYYCAIYTGRWVPFEYWGQGTLVTVSSASTSGPSDIQMTQSPSSLSASVGDRVTITCRASQWIGSQLSWYQQKPGKAPKLLIMWRSSLQSGVPSRFSGSGSGTDFTLTISSLQPEDFATYYCAQGLRHPKTFGQGTKVEIKR

- MRC5 (ND50 in nM) [1]: 3.7 nM
B2: DMS0114 (bispecific antibody)
chain: EVQLLESGGGLVQPGGSLRLSCAASGFTFVKYSMGWVRQAPGKGLEWVSQISNTADRTYYAHSVKGRFTISRDNSKNTLYLQMNSLRAEDTAVYYCAIYTGRWVPFEYWGQGTLVTVSSASTDIQMTQSPSSLSASVGDRVTITCRASQWIGSQLSWYQQKPGKAPKLLIMWRSSLQSGVPSRFSGSGSGTDFTLTISSLQPEDFATYYCAQGLMKPMTFGQGTKVEIKR

- Kd [2]: 0.16 nM
- koff [2]: 5.8e-05 s⁻¹
- kon [2]: 360000 M⁻¹ s⁻¹
- MRC5 (ND50 in nM) [1]: 1.7 nM
B3: DMS0115 (bispecific antibody)
chain: EVQLLESGGGLVQPGGSLRLSCAASGFTFVKYSMGWVRQAPGKGLEWVSQISNTADRTYYAHSVKGRFTISRDNSKNTLYLQMNSLRAEDTAVYYCAIYTGRWVPFEYWGQGTLVTVSSASTSGPSDIQMTQSPSSLSASVGDRVTITCRASRPIGTTLSWYQQKPGKAPKLLILWNSRLQSGVPSRFSGSGSGTDFTLTISSLQPEDFATYYCAQAGTHPTTFGQGTKVEIKR
notes: anti-TNFR1 dAb / AlbudAb in-line fusion

- Kd [2]: 0.076 nM
- fold higher affinity than the other pairings [2]: 3 fold
- koff [2]: 4.9e-05 s⁻¹
- kon [2]: 640000 M⁻¹ s⁻¹
- MRC5 (ND50 in nM) [1]: 1.4 nM
B4: DMS0118 (bispecific antibody)
chain: B1 chain with R219M, H220K, K222M
notes: as for B3

- Kd [2]: 0.14 nM
- koff [2]: 5.4e-05 s⁻¹
- kon [2]: 370000 M⁻¹ s⁻¹
- MRC5 (ND50 in nM) [1]: 1.7 nM
B5: DMS0116 (bispecific antibody)
chain: B3 chain with T158M, W176F, N177G
notes: as for B3

- MRC5 (ND50 in nM) [1]: 5 nM
B6: DMS0123 (bispecific antibody)
chain: EVQLLESGGGLVQPGGSLRLSCAASGFTFVKYSMGWVRQAPGKGLEWVSQISNTADRTYYAHSVKGRFTISRDNSKNTLYLQMNSLRAEDTAVYYCAIYTGRWVPFEYWGQGTLVTVSSASGGGGSGGGGSGGGGSDIQMTQSPSSLSASVGDRVTITCRASQWIGSQLSWYQQKPGKAPKLLIMWRSSLQSGVPSRFSGSGSGTDFTLTISSLQPEDFATYYCAQGLRHPKTFGQGTKVEIKR

- Kd [3]: 20 nM
- MRC-5 ND50 (TNFα-mediated IL-8 release) [4]: 300 nM
B7: DOM1h-574-15 (other)
VH: EVQLLESGGGLVQPGGSLRLSCAASGFTFVKYSMGWVRQAPGKGLEWVSQISNTGDHTYYADSVKGRFTISRDNSKNTLYLQMNSLRAEDTAVYYCAIYTGRWEPFDYWGQGTLVTVSS
notes: VH dAb

- MRC-5 ND50 (TNFα-mediated IL-8 release) [4]: 140 nM
B8: DOM1h-574-19 (other)
VH: B7 VH with V30G, G44D

- Kd [3]: 5.7 nM
- MRC-5 ND50 (TNFα-mediated IL-8 release) [4]: 10 nM
B9: DOM1h-574-8 (other)
VH: B7 VH with L45P, D56G
notes: VH dAb

- Kd [3]: 200 nM
- MRC-5 ND50 (TNFα-mediated IL-8 release) [4]: 800 nM
B10: DOM1h-574-11 (other)
VH: B7 VH with D56G, I98K, Y108H
notes: VH dAb

- Kd [3]: 8.4 nM
- MRC-5 ND50 (TNFα-mediated IL-8 release) [4]: 20 nM
B11: DOM1h-574-17 (other)
VH: B7 VH with L45P
notes: VH dAb

- Kd [3]: 48 nM
- MRC-5 ND50 (TNFα-mediated IL-8 release) [4]: 580 nM
B12: DOM1h-574-7 (other)
VH: B7 VH with D56G
notes: VH dAb

- Kd [3]: 4.1 nM
- MRC-5 ND50 (TNFα-mediated IL-8 release) [4]: 17 nM
B13: DOM1h-574-18 (other)
VH: B7 VH with V30G, G44D, H57R
notes: VH dAb

- Kd [3]: 23 nM
- MRC-5 ND50 (TNFα-mediated IL-8 release) [4]: 130 nM
B14: DOM1h-574-12 (other)
VH: B7 VH with I98K
notes: VH dAb

- Kd [3]: 44 nM
- MRC-5 ND50 (TNFα-mediated IL-8 release) [4]: 300 nM
B15: DOM1h-574-13 (other)
VH: B7 VH with H57R, I98K
notes: VH dAb

- Kd [3]: 210 nM
- MRC-5 ND50 (TNFα-mediated IL-8 release) [4]: 2200 nM
B16: DOM1h-574 (other)
VH: B7 VH with D56G, I98K, R102H
notes: VH dAb; also called parental dAb

- Kd [3]: 19 nM
- MRC-5 ND50 (TNFα-mediated IL-8 release) [4]: 100 nM
B17: DOM1h-574-10 (other)
VH: B7 VH with V30G, G44D, D56G
notes: VH dAb

- Kd [2]: 0.2 nM
- koff [2]: 6e-05 s⁻¹
- kon [2]: 300000 M⁻¹ s⁻¹
- MRC5 (ND50 in nM) [1]: 1.8 nM
B18: DMS0121 (bispecific antibody)
chain: EVQLLESGGGLVQPGGSLRLSCAASGFTFVKYSMGWVRQAPGKGLEWVSQISNTADRTYYAHSVKGRFTISRDNSKNTLYLQMNSLRAEDTAVYYCAIYTGRWVPFEYWGQGTLVTVSSASGGGGSGGGGSGGGGSDIQMTQSPSSLSASVGDRVTITCRASRPIGTTLSWYQQKPGKAPKLLILWNSRLQSGVPSRFSGSGSGTDFTLTISSLQPEDFATYYCAQAGTHPTTFGQGTKVEIKR
notes: as for B3

- MRC5 (ND50 in nM) [1]: 1.5 nM
B19: DMS0122 (bispecific antibody)
chain: B18 chain with T168M, W186F, N187G

- Kd [2]: 0.077 nM
- fold higher affinity than the other pairings [2]: 3 fold
- koff [2]: 3.5e-05 s⁻¹
- kon [2]: 450000 M⁻¹ s⁻¹
- MRC5 (ND50 in nM) [1]: 1.9 nM
B20: DMS0124 (bispecific antibody)
chain: B6 chain with R229M, H230K, K232M
notes: as for B3

- Kd [2]: 0.17 nM
- koff [2]: 6.2e-05 s⁻¹
- kon [2]: 370000 M⁻¹ s⁻¹
- MRC5 (ND50 in nM) [1]: 1.6 nM
B21: DMS0111 (bispecific antibody)
chain: EVQLLESGGGLVQPGGSLRLSCAASGFTFVKYSMGWVRQAPGKGLEWVSQISNTADRTYYAHSVKGRFTISRDNSKNTLYLQMNSLRAEDTAVYYCAIYTGRWVPFEYWGQGTLVTVSSASTDIQMTQSPSSLSASVGDRVTITCRASRPIGTTLSWYQQKPGKAPKLLILWNSRLQSGVPSRFSGSGSGTDFTLTISSLQPEDFATYYCAQAGTHPTTFGQGTKVEIKR
notes: as for B3

- Kd [2]: 0.14 nM
- koff [2]: 5.5e-05 s⁻¹
- kon [2]: 400000 M⁻¹ s⁻¹
- MRC5 (ND50 in nM) [1]: 1.3 nM
B22: DMS0112 (bispecific antibody)
chain: B21 chain with T154M, W172F, N173G
notes: as for B3
